Source: PMC3336217, “^111In-Labeled Cystine-Knot Peptides Based on the Agouti-Related Protein for Targeting Tumor Angiogenesis” (Journal of Biomedicine and Biotechnology, 2012)
Positions of bridges follow the written chain, without caps; N, C: chain ends. Residues, ends and D or L forms follow the SMILES beside them. *: point of attachment. DOTA = O=C(O)CN1CCN(CC(=O)O)CCN(CC(=O)*)CCN(CC(=O)O)CC1

How the values were obtained:
[1] = in vitro; type: in vitro ADME; details: mouse, serum
Procedure: Radiolabeled AgRP* peptides were incubated in 0.01 M PBS (pH 7.4) at 37°C for 24 h and monitored for degradation by HPLC. Stability was also tested by incubating 0.74 MBq (20 μCi) ^111In-DOTA-AgRP-7C or ^111In-DOTA-AgRP-6E in 400 μL of mouse serum at 37°C for 2 h. Afterward, the mixture was re-suspended in 0.5 mL of DMF containing 5 μL of Triton X-100 and centrifuged at 16,000 g for 2 min. The supernatant, which contained >95% of the starting radioactivity, was filtered using a 10 K NanoSep device (Pall Corporation, East Hills, NY, USA). Greater than 99% of the radioactive material passed through this filter. The samples were analyzed by radio-HPLC, and the percentage of intact peptide was determined by quantifying peaks corresponding to the intact peptide and to the degradation products.
Figure 1 Stability analysis of ^111In-DOTA-AgRP-7C (a) and (b), and ^111In-DOTA-AgRP-6E (c) and (d) in PBS and mouse serum. The two radiopeptides were incubated with PBS for 24 h at […], and mouse serum for 2 h at 37°C.

[2] = in vivo; details: female, athymic nu/nu, mouse, iv, total radioactivity
Procedure: (§1) All animal studies were carried out in compliance with federal and local institutional rules for animal experimentation. Approximately, 10^7 U87MG cells were suspended in PBS and subcutaneously implanted in the left shoulders of female athymic nu/nu mice. Tumors were allowed to grow to a size of 0.5 cm (2-3 weeks) before imaging experiments were performed. For biodistribution studies, U87MG tumor-bearing mice (n = 3 for each group) were injected with ^111In-DOTA-AgRP-7C (0.259–0.37 MBq, […]) or ^111In-DOTA-AgRP-6E (0.296–0.444 MBq, 8–12 μCi) via the tail vein and sacrificed at different time points (0.5, 2, 24, and 48 h) after injection (p.i.). Tumor and normal tissues of interest were removed and weighed, and their radioactivity was measured with a γ-counter. Radioactivity uptake was expressed as the percent injected dose per gram of tissue (%ID/g). To test the in vivo αvβ3 integrin targeting specificity of the probe, U87MG tumor-bearing mice (n = 3 for each group) were injected via the tail vein with a mixture of ^111In-DOTA-AgRP-7C (0.259–0.37 MBq, 7–10 μCi) and 330 μg of c(RGDyK). The mice were sacrificed at 2 h p.i. and the biodistribution of the radiolabeled peptide was measured as above.
(§2) Quantitative data were expressed as mean ± SD. Means were compared using the Student t-test. A 95% confidence level was chosen to determine the significance between groups, with P values of less than 0.05 indicating significant differences.

[3] = test system: nude mice bearing subcutaneous U87MG human glioblastoma xenografts; test: in vivo; details: female, athymic nu/nu, mouse, iv, 2 h
Procedure: as §1, §2

CC(C)C[C@@H]1NC(=O)[C@@H]2CSSC[C@@H]3NC(=O)[C@H]([C@@H](C)O)NC(=O)[C@H](C)NC(=O)[C@H](C)NC(=O)[C@@H]4CCCN4C(=O)[C@H](CC(=O)O)NC(=O)[C@H](CSSC[C@H](NC(=O)CNC(=O)CN4CCN(CC(=O)O)CCN(CC(=O)O)CCN(CC(=O)O)CC4)C(=O)N[C@@H](C(C)C)C(=O)N[C@@H](CCCNC(=N)N)C(=O)N[C@@H](CC(C)C)C(=O)N[C@@H](Cc4c[nH]cn4)C(=O)N[C@@H](CCC(=O)O)C(=O)N[C@@H](CO)C(=O)N2)NC(=O)[C@H](CSSC[C@@H](C(=O)N[C@@H](CCCNC(=N)N)C(=O)O)NC(=O)[C@H](Cc2ccc(O)cc2)NC(=O)[C@@H]2CSSC[C@H](NC(=O)[C@H](Cc4ccc(O)cc4)NC3=O)C(=O)N[C@@H](Cc3ccc(O)cc3)C(=O)NCC(=O)N[C@@H](CCCNC(=N)N)C(=O)NCC(=O)N[C@@H](CC(=O)O)C(=O)N[C@@H](CC(N)=O)C(=O)N[C@@H](CC(=O)O)C(=O)N[C@@H](CC(C)C)C(=O)N[C@@H](CCCNC(=N)N)C(=O)N2)NC(=O)[C@@H]2CCCN2C(=O)[C@H](C(C)C)NC(=O)[C@H](CCC(N)=O)NC(=O)[C@H](CCC(N)=O)NC(=O)CNC1=O [111In-DOTA-AgRP-7C, metal not drawn] ({DOTA}-GCVRLHESCLGQQVPCCDPAATCYCYGRGDNDLRCYCR-OH; disulfide 2-17, 9-23, 16-37, 25-35)
remaining at 2 h, 1.85 MBq/mL [1]: > 95%
tissue uptake at 0.5 h ([2]; Blood uptake): 0.68 ± 0.26 %ID/g
tissue uptake at 2 h ([2]; Blood uptake): 0.1 ± 0.02 %ID/g
tissue uptake at 24 h ([2]; Blood uptake): 0.01 %ID/g
tissue uptake at 48 h ([2]; Blood uptake): 0.01 %ID/g
tissue uptake at 0.5 h ([2]; Bone uptake): 1.41 ± 0.36 %ID/g
tissue uptake at 2 h ([2]; Bone uptake): 0.63 ± 0.05 %ID/g
tissue uptake at 24 h ([2]; Bone uptake): 0.39 ± 0.07 %ID/g
tissue uptake at 48 h ([2]; Bone uptake): 0.24 ± 0.05 %ID/g
tissue uptake at 0.5 h ([2]; Brain uptake): 0.04 ± 0.02 %ID/g
tissue uptake at 2 h ([2]; Brain uptake): 0.02 ± 0.01 %ID/g
tissue uptake at 24 h ([2]; Brain uptake): 0.01 %ID/g
tissue uptake at 48 h ([2]; Brain uptake): 0.01 ± 0.01 %ID/g
tissue uptake at 0.5 h ([2]; Heart uptake): 0.45 ± 0.16 %ID/g
tissue uptake at 2 h ([2]; Heart uptake): 0.12 ± 0.02 %ID/g
tissue uptake at 24 h ([2]; Heart uptake): 0.04 ± 0.01 %ID/g
tissue uptake at 48 h ([2]; Heart uptake): 0.03 %ID/g
tissue uptake at 0.5 h ([2]; Intestine uptake): 2.02 ± 0.71 %ID/g
tissue uptake at 24 h ([2]; Intestine uptake): 0.29 ± 0.02 %ID/g
tissue uptake at 48 h ([2]; Intestine uptake): 0.22 ± 0.03 %ID/g
tissue uptake at 0.5 h ([2]; Kidneys uptake): 33.9 ± 8.35 %ID/g
tissue uptake at 2 h ([2]; Kidneys uptake): 30.6 ± 4.62 %ID/g
tissue uptake at 24 h ([2]; Kidneys uptake): 19.1 ± 2.17 %ID/g
tissue uptake at 48 h ([2]; Kidneys uptake): 8.47 ± 0.04 %ID/g
tissue uptake at 0.5 h ([2]; Liver uptake): 0.8 ± 0.19 %ID/g
tissue uptake at 24 h ([2]; Liver uptake): 0.24 ± 0.03 %ID/g
tissue uptake at 48 h ([2]; Liver uptake): 0.19 ± 0.03 %ID/g
tissue uptake at 0.5 h ([2]; Lung uptake): 2.11 ± 0.65 %ID/g
tissue uptake at 24 h ([2]; Lung uptake): 0.26 ± 0.09 %ID/g
tissue uptake at 48 h ([2]; Lung uptake): 0.12 ± 0.02 %ID/g
tissue uptake at 0.5 h ([2]; Muscle uptake): 0.3 ± 0.13 %ID/g
tissue uptake at 2 h ([2]; Muscle uptake): 0.06 ± 0.01 %ID/g
tissue uptake at 24 h ([2]; Muscle uptake): 0.04 ± 0.01 %ID/g
tissue uptake at 48 h ([2]; Muscle uptake): 0.02 ± 0.01 %ID/g
tissue uptake at 0.5 h ([2]; Pancreas uptake): 0.42 ± 0.17 %ID/g
tissue uptake at 2 h ([2]; Pancreas uptake): 0.13 ± 0.03 %ID/g
tissue uptake at 24 h ([2]; Pancreas uptake): 0.09 ± 0.01 %ID/g
tissue uptake at 48 h ([2]; Pancreas uptake): 0.05 ± 0.01 %ID/g
tissue uptake at 0.5 h ([2]; Spleen uptake): 1.7 ± 0.62 %ID/g
tissue uptake at 24 h ([2]; Spleen uptake): 0.58 ± 0.09 %ID/g
tissue uptake at 48 h ([2]; Spleen uptake): 0.46 ± 0.1 %ID/g
tissue uptake at 0.5 h ([2]; Stomach uptake): 2.17 ± 0.49 %ID/g
tissue uptake at 24 h ([2]; Stomach uptake): 0.21 ± 0.01 %ID/g
tissue uptake at 48 h ([2]; Stomach uptake): 0.14 ± 0.02 %ID/g
tissue uptake at 0.5 h ([2]; Tumor uptake): 5.74 ± 1.6 %ID/g
tissue uptake at 24 h ([2]; Tumor uptake): 1.29 ± 0.02 %ID/g
tissue uptake at 48 h ([2]; Tumor uptake): 0.76 ± 0.17 %ID/g
tissue to tissue ratio at 0.5 h ([2]; Tumor-to-blood ratio): 8.9 ± 3.09
tissue to tissue ratio at 2 h ([2]; Tumor-to-blood ratio): 25.8 ± 10.5
tissue to tissue ratio at 24 h ([2]; Tumor-to-blood ratio): 128 ± 30.5
tissue to tissue ratio at 48 h ([2]; Tumor-to-blood ratio): 144 ± 36.3
tissue to tissue ratio at 0.5 h ([2]; Tumor-to-muscle ratio): 20.6 ± 6.4
tissue to tissue ratio at 24 h ([2]; Tumor-to-muscle ratio): 37.7 ± 9.81
tissue to tissue ratio at 48 h ([2]; Tumor-to-muscle ratio): 41.1 ± 8.62
Intestine uptake [3]: 0.60 ± 0.13 %ID/g
Liver uptake [3]: 0.43 ± 0.16 %ID/g
Lung uptake [3]: 0.86 ± 0.20 %ID/g
Spleen uptake [3]: 0.88 ± 0.21 %ID/g
Tumor uptake [3]: 2.35 ± 0.36 %ID/g
Tumor-to-muscle ratio [3]: 39.83 ± 9.16
